Columns and labels:
Assay in all cases: cell_activity
[1] = test system: TALEN 3' monomer for SEQ 94 site (synthetic construct); details: pair with p1; corn protoplasts; unmethylated region
[2] = test system: TALEN 5' monomer for SEQ 34 site (synthetic construct); details: pair with p4; corn protoplasts; unmethylated region
[3] = test system: TALEN 3' monomer for SEQ 93 site (synthetic construct); details: pair with p3; corn protoplasts; unmethylated region
[4] = test system: TALEN 5' monomer for SEQ 35 site (synthetic construct); details: pair with p2; corn protoplasts; unmethylated region

“TGAGTTTGAGACCCACCTG (double strand) [TALEN site 94]” gave an activity (% integration) [1] of 16.
In the case of “TCGTGTGACTGCTCCCAAA (double strand) [TALEN site 34]”, the activity (% integration) [2] is reported as 7.
“TCTACTAAAGAGGTAGCAC (double strand) [TALEN site 93]” was tested, and the activity (% integration) [3] was 7.
For “TCTCCTATCATAACGTTTG (double strand) [TALEN site 35]”, the activity (% integration) [4] was 16.
